Experimental data taken from publication PMC8053098.

Molecular target: Escherichia coli MnmA, as-purified (aerobically purified, tag removed) (Escherichia coli) (UniProt P25745)
Experiment: SEC-MALS

stoichiometry N: 2
Substance: Escherichia coli MnmA, as-purified (aerobically purified, tag removed) (from UniProt P25745 1-368) (enzyme)
